Columns and labels:
[1] = target: SARS-CoV-2 spike glycoprotein (S) (SARS-CoV-2 (Wuhan), UniProt P0DTC2)
[2] = target: SARS-CoV-2 Wuhan S RBD, biotinylated (SARS-CoV-2 (Wuhan), UniProt P0DTC2, biotin (biotinylated; site not stated))

B1: ADAH14 (VHH)
VHH: QVQLQESGGGLVQAGGSLRLSCAASGSYFFHALMGWFRQAPVKEREFVASITAVPGATYYRRCTDSVKGRFTISRDNAKNTVYLQMNSLKPEDTAVYYCALATHSNRHTPITYWGQGTQVTVSS
B1: binds [1]; binds [2].

B2: ADAH15 (VHH)
VHH: QVQLQESGGGLVQAGGSLRLSCAASGTTYLAANMGWFRQAPGKEREFVAAITFFHNPTVYYADSVKGRFTISRDNAKNTVYLQMNSLKPEDTAVYYCAATVLVRDRIHFSHSIGIRYWGQGTQVTVSS
B2: binds [1]; binds [2].
